B1: Tub4 (yeast gamma-tubulin), wild type, untagged [S. cerevisiae] / Spc110 [S. cerevisiae (endogenous in yeast cells)] (parent)
chain 1: MGGEIITLQAGQCGNHVGKFLWSQLAKEHAIGTDGLSQLPDSSTERDDDTKPFFRENSRNKFTPRAIMMDSEPSVIADVENTFRGFFDPRNTWVASDGASAGNSWANGYDIGTRNQDDILNKIDKEIDSTDNFEGFQLLHSVAGGTGSGLGSNLLEALCDRYPKKILTTYSVFPARSSEVVVQSYNTILALRRLIEDSDATVVFDNASLLNISGKVFRNPNIDLQHTNQLISTIISSVTNSIRFPSYMYSSMSSIYSTLIPSPELHFLSPSFTPFTSDYIHDDIAHKGHSSYDVMLDLLDPSNSLVSTAMNNPTYFNVYNTIIGNVEPRQISRAMTKLQQRIKFPSWSSSAMHVNIGRRSPYLPLQPNENEVSGMMLSNMSTVVNVFENACNTFDKVFAKGAFLNNYNVGDLFQSMQNVQDEFAESREVVQSLMEDYVAAEQDSYLDDVLVDDENMVGELEEDLDADGDHKLV
chain 2: MDEASHLPNGSLKNMEFTPVGFIKSKRNTTQTQVVSPTKVPNANNGDENEGPVKKRQRRSIDDTIDSTRLFSEASQFDDSFPEIKANIPPSPRSGNVDKSRKRNLIDDLKKDVPMSQPLKEQEVREHQMKKERFDRALESKLLGKRHITYANSDISNKELYINEIKSLKHEIKELRKEKNDTLNNYDTLEEETDDLKNRLQALEKELDAKNKIVNSRKVDDHSGCIEEREQMERKLAELERKLKTVKDQVLELENNSDVQSLKLRSKEDELKNLMNELNELKSNAEEKDTQLEFKKNELRKRTNELNELKIKSDEMDLQLKQKQNESKRLKDELNELETKFSENGSQSSAKENELKMLKNKIAELEEEISTKNSQLIAKEGKLASLMAQLTQLESKLNQRDSQLGSREEELKKTNDKLQKDIRIAREETVSKDERIIDLQKKVKQLENDLFVIKKTHSESKTITDNELESKDKLIKILENDLKVAQEKYSKMEKELKEREFNYKISESKLEDEKTTLNEKISNLAAENSQLKNKIEDNSTATHHMKENYEKQLESLRKDIEEYKESAKDSEDKIEELKIRIAENSAKVSEKRSKDIKQKDEQISDLTQNLKLQEDEISSLKSIIDRYKKDFNQLKSEQSNIQHDLNLQILNLENKLIESEDELKSLRDSQKIEIENWKRKYNNLSLENDRLLTEKESASDKEREISILNRKLDEMDKEKWNLQESKEKYKRELQKVITANDRLRREKEELNENSNNIRIMEDKMTRIKKNYLSEITSLQEENRRLEERLILNERRKDNDSTMQLNDIISYYKLKYHSEVRHNNDLKVINDYLNKVLALGTRRLRLDTRKGEHSLNISLPDDDELDRDYYNSHVYTRYHDYEYPLRFNLNRRGPYFERRLSFKTVALLVLACVRMKRIAFYRRSDDNRLRILRDRIESSSGRISW

Variants of B1 are the subject of the first test. The experiment in a line: co-immunoprecipitation (anti-HA IP of Spc97-3HA), quantified immunoblot. The following applies: with Spc110 [S. cerevisiae (endogenous in yeast cells)], Indirect: Spc110 recovered in Spc97-3HA IP from tub4-S100E cells, TUB4-AID SPC97-3HA cells, IAA for 2 h at 30°C, normalized to precipitated Spc97-3HA, read off a plot.
Take chain 1 S100E: the ratio to parent came out at 0.76 RI.

The same test, now with this note: with Spc110 [S. cerevisiae (endogenous in yeast cells)], Indirect: Spc110 recovered in Spc97-3HA IP from tub4-S360D cells, TUB4-AID SPC97-3HA cells, IAA for 2 h at 30°C, normalized to precipitated Spc97-3HA, read off a plot.
Turning to chain 1 S360D, the ratio to parent is 0.28 RI.

The same test, now with this note: with Spc110 [S. cerevisiae (endogenous in yeast cells)]; Indirect: Spc110 recovered in Spc97-3HA IP from tub4-S74E cells; TUB4-AID SPC97-3HA cells, IAA for 2 h at 30°C; normalized to precipitated Spc97-3HA; parent: 1; read off a plot.
In the case of chain 1 S74E, the ratio to parent was determined as 1.3 RI.

Source of the values: paper PMC3088709, “Phosphorylation of the Yeast γ-Tubulin Tub4 Regulates Microtubule Function” (PLoS ONE, 2011).
